In patent US20210047427A1 (Takeda / Millennium, published 2021):

Biological target: T1, cynomolgus CD38 (cynomolgus monkey, UniProt Q5VAN0 1-301)
T1 construct: In the assays it is native CD38 on cynomolgus monkey blood lymphocytes; also called cyno CD38; monkey CD38
Assay: Flow cytometry of cynomolgus monkey whole blood stained with labelled AB79. MFI converted to MOEF with Rainbow Beads. NK (CD3-, CD159a+), B (CD3-, CD20+) and T (CD3+) cells; 3 individuals, mean with SD.
Procedure: The flow cytometric measurements were standardized and the signals are reported in molecules of equivalent soluble fluorescence (MOEF). […] Direct comparison of CD38 expression levels on monkey NK cells (CD3−, CD159a+), B cells (CD3−, CD20+) and T cells (CD3+) and human NK cells (CD3−, CD16/CD56+), B cells (CD3−, CD19+) and T cells (CD3+) were evaluated by flow cytometry.
An aliquot of blood (100 μL) was mixed with appropriate volume of antibody (FIG. 1) and incubated for 15-20 minutes at RT in the dark. After incubation, 1 mL of BD FACS lyse (1×; BD Biosciences; San Jose, Calif.) was added to lyse red blood cells and the cells incubated for 10 minutes at RT in the dark, then centrifuged, decanted and resuspended in 1 mL of staining buffer with bovine serum albumin (BD Biosciences).

T1 sequence (Q5VAN0 whole entry): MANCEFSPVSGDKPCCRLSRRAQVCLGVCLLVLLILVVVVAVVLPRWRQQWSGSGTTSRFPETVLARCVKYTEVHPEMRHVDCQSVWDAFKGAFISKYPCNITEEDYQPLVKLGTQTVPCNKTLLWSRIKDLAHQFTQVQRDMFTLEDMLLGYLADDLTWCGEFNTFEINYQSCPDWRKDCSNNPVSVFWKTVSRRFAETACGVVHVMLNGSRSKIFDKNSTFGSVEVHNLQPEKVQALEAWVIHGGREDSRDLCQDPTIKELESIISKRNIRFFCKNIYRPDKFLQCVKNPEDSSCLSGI

- binding result: binds
B1: AB79 (antibody, human IgG1, lambda, V domains shown)
VH: EVQLLESGGGLVQPGGSLRLSCAASGFTFDDYGMSWVRQAPGKGLEWVSDISWNGGKTHYVDSVKGQFTISRDNSKNTLYLQMNSLRAEDTAVYYCARGSLFHDSSGFYFGHWGQGTLVTVSS
VL: QSVLTQPPSASGTPGQRVTISCSGSSSNIGDNYVSWYQQLPGTAPKLLIYRDSQRPSGVPDRFSGSKSGTSASLAISGLRSEDEADYYCQSYDSSLSGSVFGGGTKLTVLG
